Test results taken from patent US20260102505A1, “ANTI-CD45-IGN ANTIBODY DRUG CONJUGATES AND USES THEREOF” (Vor Biopharma Inc., priority 2022, published 2026).

Tests used:
[1] = biological target: CD45 of non-human primate (NHP), on cells in vivo (non-human primate (NHP); not stated further); test: in vivo receptor occupancy on T cells at 24 h after a single dose of 0.20 mg/kg in NHP, n=3; footnote: * % RO measured after ADC clearance
[2] = biological target: CD45 of non-human primate (NHP), on cells in vivo (non-human primate (NHP); not stated further); test: in vivo receptor occupancy on T cells at 24 h after a single dose of 0.60 mg/kg in NHP, n=3
[3] = biological target: CD45 of non-human primate (NHP), on cells in vivo (non-human primate (NHP); not stated further); test: in vivo receptor occupancy in NHP at the minimum efficacious dose of 0.15 mg/kg
[4] = biological target: CD45 of non-human primate (NHP), on cells in vivo (non-human primate (NHP); not stated further); test: in vivo receptor occupancy on T cells at 24 h after a single dose of 0.05 mg/kg in NHP, n=3; footnote: * % RO measured after ADC clearance
[5] = biological target: CD45 of non-human primate (NHP), on cells in vivo (non-human primate (NHP); not stated further); test: in vivo receptor occupancy on T cells at 24 h after a single dose of 0.30 mg/kg in NHP, n=6
[6] = biological target: CD45 of non-human primate (NHP), on cells in vivo (non-human primate (NHP); not stated further); test: in vivo receptor occupancy on T cells at 24 h after a single dose of 0.10 mg/kg in NHP, n=6; footnote: * % RO measured after ADC clearance

B1: anti-CD45 ADC comprising anti-CD45 Ab5 conjugated to DGN-549 via cysteines at amino acid 265 (EU numbering by Kabat) in the Fc region, protease-cleavable linker (antibody, human IgG1, kappa, L234A L235A, V domains shown)
VH: EVQLVESGGGLVQPGGSLRLSCAASGFTFEAYSMNWVRQAPGKGLEWVSYISLSGATIHYADSVKGRFTISRDNAKNSLYLQMNSLRAEDTAVYYCARGGQYYYTSSDYGEVAFDIWGQGTMVTVSS
VL: DIVMTQSPLSLPVTPGEPASISCRSSQSLVSSGYNYLDWYLQKPGQSPQLLIYFGSSRASGVPDRFSGSGSGTDFTLKISRVEAEDVGVYYCMQRRRTPWSFGGGTKVEIKR
modifications: DGN549 (IGN pseudo dimer) via a protease-cleavable linker on the engineered Cys at position 265 (EU numbering; D265C)
B1 showed a % Receptor Occupancy (T-cells @ 24h) [1] of 6%, a % Receptor Occupancy (T-cells @ 24h) [2] of 100% and a receptor occupancy (RO) [3] of 5%. The % Receptor Occupancy (T-cells @ 24h) [4] was 2%, the % Receptor Occupancy (T-cells @ 24h) [5] was 46% and the % Receptor Occupancy (T-cells @ 24h) [6] was 4%.
